# According to paper PMC10397247:
# Legend:
# [1] = target: T1, P4SN; assay: two-hybrid library CCmax; conditions: mean of both orientations;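 further: natural log of median RNA to DNA barcode read ratio; higher means stronger binding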
# T1 chain: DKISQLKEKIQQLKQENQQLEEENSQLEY
# [2] = target: T2, P4; assay: two-hybrid library CCmax; conditions: mean of both orientations;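 further: natural log of median RNA to DNA barcode read ratio; higher means stronger binding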
# T2 chain: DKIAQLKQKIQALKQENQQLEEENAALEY
# [3] = target: T3, 4H2503-bA; assay: two-hybrid library CCNG1;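 further: natural log of median RNA to DNA barcode read ratio; higher means stronger binding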
# T3 chain: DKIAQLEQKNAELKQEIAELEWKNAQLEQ
# [4] = target: T4, 4H2717-bA; assay: two-hybrid library CCNG1;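 further: natural log of median RNA to DNA barcode read ratio; higher means stronger binding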
# T4 chain: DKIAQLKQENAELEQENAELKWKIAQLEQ
# [5] = target: T5, 4H264-bA; assay: two-hybrid library CCNG1
# T5 chain: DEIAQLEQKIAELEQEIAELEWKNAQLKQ
# [6] = target: T6, 4H3364-bA; assay: two-hybrid library CCNG1
# T6 chain: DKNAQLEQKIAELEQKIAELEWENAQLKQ
# [7] = target: T7, 4H2931-bA; assay: two-hybrid library CCNG1
# T7 chain: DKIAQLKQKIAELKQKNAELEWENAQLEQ
# [8] = target: T8, 4H2473-bA; assay: two-hybrid library CCNG1
# T8 chain: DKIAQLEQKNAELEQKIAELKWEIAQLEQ
# [9] = target: T9, P1A-bH; assay: two-hybrid library CCNG1
# T9 chain: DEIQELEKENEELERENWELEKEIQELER
# [10] = target: T10, 4H477-bA; assay: two-hybrid library CCNG1
# T10 chain: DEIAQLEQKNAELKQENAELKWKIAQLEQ
# [11] = target: T11, 4H796-bA; assay: two-hybrid library CCNG1
# T11 chain: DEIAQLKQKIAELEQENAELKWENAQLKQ
# [12] = target: T12, 4H3297-bA; assay: two-hybrid library CCNG1
# T12 chain: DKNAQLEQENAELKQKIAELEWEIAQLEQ
# [13] = target: T13, 4H319-bA; assay: two-hybrid library CCNG1
# T13 chain: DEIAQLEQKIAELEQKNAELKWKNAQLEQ
# [14] = target: T14, 4H348-bA; assay: two-hybrid library CCNG1
# T14 chain: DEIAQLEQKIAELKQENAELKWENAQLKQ
# [15] = target: T15, 4H3277-bA; assay: two-hybrid library CCNG1
# T15 chain: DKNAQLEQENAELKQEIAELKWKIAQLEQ
# [16] = target: T16, 4H2233-bA; assay: two-hybrid library CCNG1
# T16 chain: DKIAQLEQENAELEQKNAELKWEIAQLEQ
# [17] = target: T17, 4H3041-bA; assay: two-hybrid library CCNG1
# T17 chain: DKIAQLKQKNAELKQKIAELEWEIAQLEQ
# [18] = target: T18, 4H932-bA; assay: two-hybrid library CCNG1
# T18 chain: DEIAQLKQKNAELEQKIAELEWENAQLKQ
# [19] = target: T19, 4H2438-bA; assay: two-hybrid library CCNG1
# T19 chain: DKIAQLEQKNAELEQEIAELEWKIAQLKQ
# [20] = target: T20, 4H2760-bA; assay: two-hybrid library CCNG1
# T20 chain: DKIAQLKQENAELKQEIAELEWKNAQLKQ
# [21] = target: T21, 4H2162-bA; assay: two-hybrid library CCNG1
# T21 chain: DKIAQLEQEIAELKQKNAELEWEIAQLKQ
# [22] = target: T22, 4H2518-bA; assay: two-hybrid library CCNG1
# T22 chain: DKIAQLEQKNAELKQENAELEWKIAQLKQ
# [23] = target: T23, 4H2585-bA; assay: two-hybrid library CCNG1
# T23 chain: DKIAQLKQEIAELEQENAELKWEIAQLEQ
# [24] = target: T24, 4H730-bA; assay: two-hybrid library CCNG1
# T24 chain: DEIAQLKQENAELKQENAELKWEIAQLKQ
# [25] = target: T25, 4H2859-bA; assay: two-hybrid library CCNG1
# T25 chain: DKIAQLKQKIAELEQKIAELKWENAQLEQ
# [26] = target: T26, 4H2223-bA; assay: two-hybrid library CCNG1
# T26 chain: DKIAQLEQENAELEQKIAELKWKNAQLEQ
# [27] = target: T27, 4H235-bA; assay: two-hybrid library CCNG1
# T27 chain: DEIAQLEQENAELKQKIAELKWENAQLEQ
# [28] = target: T28, 4H2692-bA; assay: two-hybrid library CCNG1
# T28 chain: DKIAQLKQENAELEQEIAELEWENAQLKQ
# [29] = target: T29, 4H949-bA; assay: two-hybrid library CCNG1
# T29 chain: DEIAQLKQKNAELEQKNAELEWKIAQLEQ
# [30] = target: T30, 4H349-bA; assay: two-hybrid library CCNG1
# T30 chain: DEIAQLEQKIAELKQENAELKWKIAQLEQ
# [31] = target: T31, 4H883-bH; assay: two-hybrid library CCNG1
# T31 chain: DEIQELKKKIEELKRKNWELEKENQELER
# [32] = target: T32, 4H2588-bA; assay: two-hybrid library CCNG1
# T32 chain: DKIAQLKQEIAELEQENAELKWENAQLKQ
# [33] = target: T33, 4H2444-bA; assay: two-hybrid library CCNG1
# T33 chain: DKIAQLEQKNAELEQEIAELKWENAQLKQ
# [34] = target: T34, 4H2839-bA; assay: two-hybrid library CCNG1
# T34 chain: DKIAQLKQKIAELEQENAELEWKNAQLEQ
# [35] = target: T35, O3-bA; assay: two-hybrid library CCNG1
# T35 chain: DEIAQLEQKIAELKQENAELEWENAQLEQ
# [36] = target: T36, 4H2915-bA; assay: two-hybrid library CCNG1
# T36 chain: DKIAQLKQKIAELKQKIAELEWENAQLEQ
# [37] = target: T37, 4H3057-bA; assay: two-hybrid library CCNG1
# T37 chain: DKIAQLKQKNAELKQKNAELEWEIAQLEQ
# [38] = target: T38, 4H40-bA; assay: two-hybrid library CCNG1
# T38 chain: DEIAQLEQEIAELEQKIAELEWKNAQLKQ
# [39] = target: T39, 4H2143-bA; assay: two-hybrid library CCNG1
# T39 chain: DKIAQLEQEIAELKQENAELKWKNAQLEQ
# [40] = target: T40, 4H492-bA; assay: two-hybrid library CCNG1
# T40 chain: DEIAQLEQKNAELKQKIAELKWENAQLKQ
# [41] = target: T41, 4H56-bA; assay: two-hybrid library CCNG1
# T41 chain: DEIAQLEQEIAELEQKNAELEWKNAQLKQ
# [42] = target: T42, 4H2253-bA; assay: two-hybrid library CCNG1
# T42 chain: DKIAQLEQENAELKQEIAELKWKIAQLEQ
# [43] = target: T43, 4H741-bA; assay: two-hybrid library CCNG1
# T43 chain: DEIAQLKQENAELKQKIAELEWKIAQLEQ
# [44] = target: T44, 4H3381-bA; assay: two-hybrid library CCNG1
# T44 chain: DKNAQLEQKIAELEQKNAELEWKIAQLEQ
binder,measurement,setting,value
DEIQQLEEEIAQLEQKNAALKEKNQALKY [P3],interaction score,[1],1.63
same,interaction score,[2],0.871
DKIAQLEQEIAELKQENAELKWKNAQLEQ [4H2143-bA],interaction score,[3],-0.661
same,interaction score,[4],0.447
same,interaction score,[5],-1.37
same,interaction score,[6],-0.25
same,interaction score,[7],0.604
same,interaction score,[8],-0.712
same,interaction score,[9],-0.594
same,interaction score,[10],-1.41
same,interaction score,[11],-0.0583
same,interaction score,[12],-0.562
same,interaction score,[13],-1.13
same,interaction score,[14],-2.35
same,interaction score,[15],-0.971
same,interaction score,[16],-0.508
same,interaction score,[17],0.0855
same,interaction score,[18],-0.976
same,interaction score,[19],-0.866
same,interaction score,[20],-0.549
same,interaction score,[21],-0.188
same,interaction score,[22],-0.404
same,interaction score,[23],0.499
same,interaction score,[24],-0.518
same,interaction score,[25],0.213
same,interaction score,[26],-0.911
same,interaction score,[27],-1.89
same,interaction score,[28],-0.33
same,interaction score,[29],-0.273
same,interaction score,[30],-0.729
same,interaction score,[31],-0.0863
same,interaction score,[32],0.968
same,interaction score,[33],-0.654
same,interaction score,[34],0.951
same,interaction score,[35],0.533
same,interaction score,[36],0.145
same,interaction score,[37],-0.0999
same,interaction score,[38],-1.53
same,interaction score,[39],0.408
same,interaction score,[40],-0.554
same,interaction score,[41],-0.735
same,interaction score,[42],-0.521
same,interaction score,[43],-1.07
same,interaction score,[44],-0.302
